# Where no end group is shown, it is not given here.
# Tests used:
# [1] = tested on: RWPE-1 cells; assay: Clonogenic assay; assay type: cell-based; settings: benign prostate cells, 19-mer vector vs control; at least three experiments
# Method: (§1) Figure 6 Selectivity of action of the Bag-1 peptide. A Amino acid sequence of the 19mer peptide and its deletion mutants. B GST pull-down assay performed incubating 400 µg of 22Rv.1 cell lysate and 25 µg of GST-fused deletion mutants of the 19mer peptide. After the pull-down experiment, Western blots were carried out with anti-GRP78/BiP and GST antibodies. C. Fluorescence polarization (FP) assays with a 10 nM FITC-labeled 7-mer Bag-1 peptide and dilutions of the GST-fused substrate binding domain of GRP78 in 60 µl of Tris-GSH buffer (50 mM Tris, 10 mM reduced glutathione and 0.1% BSA, pH 8.0). Triplicate samples were measured after 5 h of incubation at room temperature with an Infinite F-200 reader (Tecan) with excitation at 490 nm and emission at 535 nm. Binding constants were determined from three independent experiments using non-linear regression in Sigma Plot 10.0. D. Competition assays with a complex of 10 nM of FITC-labeled Bag-1 7-mer peptide and 0.75 mg/ml GST-fused GRP78 substrate binding domain was measured against a dilution series from 100 µM to 0.1 nM of wild-type Bag-1 7-mer peptide (filled line) or triple mutant peptide (dotted line) in 40 µl of Tris-GSH buffer. FITC-peptide and the FITC-peptide-protein complex were used as controls. Fluorescence polarization was determined as described above and IC50 values were determined in Sigma Plot. E. Clonogenic assay in 22Rv.1 cells with pcDNA3 based vectors coding for the N-terminal Bag-1 peptide (positive control), the 19mer and the 19mer mutant fragments as well as the empty expression vector (negative control). Cells were transfected with the indicated constructs and selected in medium containing neomycin. The colonies were stained and quantified. Shown as bar chats are the mean ± SEM of at least three independent experiments with three different plasmid preparations. (*p<0.05). F. In vivo luciferase refolding assay was performed in HEK-293 cells transfected at 70% confluency with 2 µg β-actin-fire fly luciferase construct, 3 µg pcDNA3 empty vector as control or pCMV6-GRP78, 6 µg pcDNA3.1-HA-19-mer or 19-mer mutant peptide and 0.5 µg Renilla luciferase construct to determine the transfection efficiency. Shown as bar charts is the mean of at least three different experiments ± SEM (*p<0.05). G. Clonogenic assay with the indicated malignant (LNCaP, DU145, PC3) and benign (BPH1, PNT2, RWPE1) prostate cell lines transfected with the vector control (black bars) and a vector expressing the 19-mer peptide (white bars). Shown are the mean ± SD of at least three different experiments performed with three different plasmid preparations (*p<0.05). H. Western blot analysis of cell lysates derived from the prostate cancer cells used for the colony forming assay with specific antibodies against GRP78 and β-actin.
# [2] = tested on: LNCaP cells; assay: Clonogenic assay; assay type: cell-based; settings: 19-mer expressing vector vs vector control; at least three experiments
# Method: as §1
# [3] = tested on: DU145 cells; assay: Clonogenic assay; assay type: cell-based; settings: 19-mer expressing vector vs vector control; at least three experiments
# Method: as §1
# [4] = tested on: PNT-2 cells; assay: Clonogenic assay; assay type: cell-based; settings: benign prostate cells, 19-mer vector vs control; at least three experiments
# Method: as §1
# [5] = tested on: PC3 cells; assay: Clonogenic assay; assay type: cell-based; settings: 19-mer expressing vector vs vector control; at least three experiments
# Method: as §1
# [6] = tested on: BPH-1 cells; assay: Clonogenic assay; assay type: cell-based, Human; settings: benign prostate cells, 19-mer vector vs control; at least three experiments
# Method: Figure 6 Selectivity of action of the Bag-1 peptide. A Amino acid sequence of the 19mer peptide and its deletion mutants. B GST pull-down assay performed incubating 400 µg of 22Rv.1 cell lysate and 25 µg of GST-fused deletion mutants of the 19mer peptide. After the pull-down experiment, Western blots were carried out with anti-GRP78/BiP and GST antibodies. C. Fluorescence polarization (FP) assays with a 10 nM FITC-labeled 7-mer Bag-1 peptide and dilutions of the GST-fused substrate binding domain of GRP78 in 60 µl of Tris-GSH buffer (50 mM Tris, 10 mM reduced glutathione and 0.1% BSA, pH 8.0). Triplicate samples were measured after 5 h of incubation at room temperature with an Infinite F-200 reader (Tecan) with excitation at 490 nm and emission at 535 nm. Binding constants were determined from three independent experiments using non-linear regression in Sigma Plot 10.0. D. Competition assays with a complex of 10 nM of FITC-labeled Bag-1 7-mer peptide and 0.75 mg/ml GST-fused GRP78 substrate binding domain was measured against a dilution series from 100 µM to 0.1 nM of wild-type Bag-1 7-mer peptide (filled line) or triple mutant peptide (dotted line) in 40 µl of Tris-GSH buffer. […] Fluorescence polarization was determined as described above and IC50 values were determined in Sigma Plot. […] The colonies were stained and quantified. […]
# [7] = tested on: GADD45; assay: Interaction with GADD45 (results not shown); assay type: binding
# [8] = tested on: 22Rv.1 cells; assay: ER-stress induced apoptosis markers, Western blot in 22Rv.1 cells; assay type: cell-based
# Method: Unless otherwise stated, stable transfection was carried out in 22Rv.1 or BPH-1 cells with 10 µg of plasmid DNA using FuGene 6™ (Roche Diagnostics Mannheim, Germany) Stably transfected 22Rv.1 cells were selected with 0.8 mg/ml while BPH-1 cell clones were selected with 1.2 mg/ml G418. LNCaP, PC3, DU145, PNT-2 and RWPE-1 cell clones were selected with 1 mg/ml G418. Specific downregulation of GRP78 expression was achieved by transfecting siRNA-duplexes (GRP78∶5′-[…]-3′) twice in 72 h using HiPerfect™ (Qiagen Hilden, Germany). siRNA against GFP (5′-[…]-3′) was used as a control. Western blot analysis was performed as previously described.
# Figure 3 The Bag-1 peptide modulates the UPR and sensitizes 22Rv.1 cells to ER-stress. A. UPR modulation upon Bag-1 peptide overexpression. Pooled clones of 22Rv.1 cells transfected with pcDNA3.1-HA-Bag-1 68 amino acid peptide or an empty expression vector were treated with 300 nM thapsigargin (TG) for the indicated time points. Cells were lysed and subjected to Western blot analysis using the indicated antibodies or phospho-specific antibodies. B. The Bag-1 peptide sensitizes 22Rv.1 cells to ER-stress induced apoptosis. Pooled clones of 22Rv.1 transfected with the Bag-1 peptide or the empty expression vector were treated with thapsigargin (TG) or glucose-starved (GS) for 24 h. The cells were lysed and subjected to Western blot analysis using anti-PARP and caspase 4 specific antibodies. Anti-HA antibody was used to detect the HA-Bag-1 peptide. […] C. […] Pooled clones of 22Rv.1 expressing HA-tagged Bag-1 peptide or an empty expression vector were transfected with GRP78/BiP siRNA or control GFP siRNA. The cells were lysed and Western blot was carried out with anti-PARP, anti-GRP78 and anti-HA antibodies. β-actin antibody was used to determine the level of protein loaded on the gel.
# Supplementary file pone.0045690.s005.tif: Figure S5 Knock-down of CHOP impairs the Bag-1 peptide-mediated increase in apoptosis. The action of the Bag-1 peptide is dependent on CHOP. Pooled clones of 22Rv.1 expressing an empty expression vector (lane 1 to 4) or an HA-tagged Bag-1 peptide (lane 5 to 8) were transfected with control GFP siRNA (lane 1–2 and 5–6) or CHOP siRNA (lane 3–4 and 7–8). After treatment with 300 nM thapsigargin (TG) for 24 h, cells were lysed and Western blot was carried out with anti-PARP, anti-CHOP and anti-HA antibodies. β-actin antibody was used to determine the level of protein loaded on the gel. (TIF) Click here for additional data file.
# Supplementary file pone.0045690.s006.tif: Figure S6 Overexpression of the Bag-1 peptide increases Capase-7 cleavage and JNK expression. 22Rv.1 cells stably transfected with an empty vector control (lane 1–2) or a plasmid encoding an HA-tagged Bag-1 peptide (lane 3–4) were treated with 300 nM thapsigargin (TG) for 24 h and harvested for Western blot anaysis. Specific antibodies against JNK (Cell Signaling, Frankfurt am Main, Germany), cleaved Caspase-7 (Cell Signaling, Frankfurt am Main, Germany), HA (HAA.11 clone 16B12, Covance, Munich, Germany) or β-actin (Sigma, Steinheim, Germany) were used in the experiment. (TIF) Click here for additional data file.
Molecule,RWPE-1 growth in clonogenic assay [1],LNCaP growth in clonogenic assay [2],DU145 growth in clonogenic assay [3],PNT-2 growth in clonogenic assay [4],PC3 growth in clonogenic assay [5],BPH-1 growth in clonogenic assay [6],interaction with GADD45 [7],"PARP cleavage, GFP siRNA control, no ER stress ([8]; 22Rv.1 cells expressing Bag-1 peptide vs vector, no ER stress)","PARP cleavage, GRP78/BiP knock-down ([8]; 22Rv.1 cells transfected with GRP78/BiP siRNA, Bag-1 peptide vs vector)","caspase 4 and PARP cleavage, no ER stress ([8]; 22Rv.1 cells, no stressor, vs vector control)","CHOP expression and PARP cleavage ([8]; 22Rv.1 cells, thapsigargin 300 nM 24 h, Bag-1 peptide vs vector control)","JNK expression and caspase 7 cleavage ([8]; 22Rv.1 cells, thapsigargin 300 nM 24 h, vs vector control)","PARP cleavage after CHOP siRNA knockdown ([8]; 22Rv.1 cells, thapsigargin 300 nM 24 h, both vector and peptide cell lines)","caspase 4 expression and PARP cleavage, with ER stress ([8]; 22Rv.1 cells, thapsigargin or glucose starvation 24 h, vs vector control)"
19-mer: Bag-1L 202–220 (TPLSALGIQDGCRVMLIGK; not fully specified),not growth inhibited,inhibited growth,inhibited growth,not growth inhibited,inhibited growth,not growth inhibited,,,,,,,,
"Bag-1 peptide: internal sequence of 68 amino acids of Bag-1 (Bag1-L 202–269), HA-tagged, expressed from pcDNA3 (also: HA tag, end not given here) TPLSALGIQDGCRVMLIGKKNSPQEEVELKKLKHLEKSVEKIADQLEELNKELTGIQQGFLPKDLQAE",,,,,,,interact with GADD45,increase in the PARP cleavage even in the absence of ER stress,no difference in the cleavage pattern was further observed,both caspase 4 and PARP cleavage was increased,further enhanced in the cells expressing the Bag-1 peptide,enhanced expression of JNK and caspase 7 cleavage,PARP cleavage was reduced in both cells line,a tremendous increase in caspase 4 expression and PARP cleavage

# Source: article PMC3462190, “A Peptidic Unconjugated GRP78/BiP Ligand Modulates the Unfolded Protein Response and Induces Prostate Cancer Cell Death” (PLoS ONE, 2012)
